Data published in patent US20220177587A1, “METHODS AND USES OF VARIANT CD80 FUSION PROTEINS AND RELATED CONSTRUCTS” (Alpine Immune Sciences, Inc., priority 2018, published 2022).

Tested on: human pan T cells
Test: Anti-CD3 coimmobilization assay, IFN-gamma
Assay type: cell-based
Settings: Table E34; culture supernatant, 3 days
Protocol: Costimulatory bioactivity of CD80 fusion variants was determined in anti-CD3 coimmobilization assays. 1 nM or 4 nM mouse anti-human CD3 (OKT3, Biolegends, USA) was diluted in PBS with 1 nM to 80 nM rCD80.Fc variant proteins. This mixture was added to tissue culture treated flat bottom 96-well plates (Corning, USA) overnight to facilitate adherence of the stimulatory proteins to the wells of the plate. The next day, unbound protein was washed off the plates and 100,000 purified human pan T cells (BenTech Bio, US) or human T cell clone BC3 (Astarte Biologics, USA) were added to each well in a final volume of 200 μl of Ex-Vivo 15 media (Lonza, Switzerland). Cells were cultured 3 days before harvesting culture supernatants and measuring human IFN-gamma levels with Duoset ELISA kit (R&D Systems, USA) as described above.

| Molecule | Anti-CD3 IFN-gamma Coimmobilization Assay |
| --- | --- |
| S21P, R29D, Y31L, Q33H, K36G, M38I, T41A, M43R, M47T, N48I, V68A, E81V, L85R, K89N, A91T, F92P, K93V, R94L,P109H, I126L, K169I (protein) VIHVTKEVKEVATLSCGHNVPVEELAQTDILWHKEGKIVLAMRSGDTIIWPEYKNRTIFDITNNLSIAILALRPSDEGTYVCVVRKYENDTPVLEHLAEVTLSVKADFHTPSISDFEIPTSNIRRLICSTSGGFPEPHLSWLENGEELNAINTTVSQDPETELYAVSSILDFNMTTNHSFMCLIKYGHLRVNQTFNWNTTKQEHFPDN | 137 pg/mL |
| R29D, Y31L, Q33H, K36G, M38I, T41A, M43R, M47T, E81V, L85R, K89N, A91T, F92P, K93V, R94L, S21P, P74L, Y80N, D90N, T130A, N149S, E162G (protein) VIHVTKEVKEVATLSCGHNVPVEELAQTDILWHKEGKIVLAMRSGDTNIWPEYKNRTIFDITNNLSIVILALRLSDEGTNVCVVRKYENNTPVLEHLAEVTLSVKADFPTPSISDFEIPTSNIRRIICSASGGFPEPHLSWLENGEELSAINTTVSQDPETGLYAVSSKLDFNMTTNHSFMCLIKYGHLRVNQTFNWNTTKQEHFPDN | 54 pg/mL |
| K89E, K93E, T130A (protein, CD80 v91 ECD) VIHVTKEVKEVATLSCGHNVSVEELAQTRIYWQKEKKMVLTMMSGDMNIWPEYKNRTIFDITNNLSIVILALRPSDEGTYECVVLKYEEDAFEREHLAEVTLSVKADFPTPSISDFEIPTSNIRRIICSASGGFPEPHLSWLENGEELNAINTTVSQDPETELYAVSSKLDFNMTTNHSFMCLIKYGHLRVNQTFNWNTTKQEHFPDN | 571 pg/mL |
| A91G, S129P (protein) VIHVTKEVKEVATLSCGHNVSVEELAQTRIYWQKEKKMVLTMMSGDMNIWPEYKNRTIFDITNNLSIVILALRPSDEGTYECVVLKYEKDGFKREHLAEVTLSVKADFPTPSISDFEIPTSNIRRIICPTSGGFPEPHLSWLENGEELNAINTTVSQDPETELYAVSSKLDFNMTTNHSFMCLIKYGHLRVNQTFNWNTTKQEHFPDN | 0 pg/mL |
| Y31H, S129P (protein, CD80 v106 ECD) VIHVTKEVKEVATLSCGHNVSVEELAQTRIHWQKEKKMVLTMMSGDMNIWPEYKNRTIFDITNNLSIVILALRPSDEGTYECVVLKYEKDAFKREHLAEVTLSVKADFPTPSISDFEIPTSNIRRIICPTSGGFPEPHLSWLENGEELNAINTTVSQDPETELYAVSSKLDFNMTTNHSFMCLIKYGHLRVNQTFNWNTTKQEHFPDN | 76 pg/mL |
| I69T, L70Q, A91G, T120S (protein, CD80 v105 ECD) VIHVTKEVKEVATLSCGHNVSVEELAQTRIYWQKEKKMVLTMMSGDMNIWPEYKNRTIFDITNNLSIVTQALRPSDEGTYECVVLKYEKDGFKREHLAEVTLSVKADFPTPSISDFEIPSSNIRRIICSTSGGFPEPHLSWLENGEELNAINTTVSQDPETELYAVSSKLDFNMTTNHSFMCLIKYGHLRVNQTFNWNTTKQEHFPDN | 509 pg/mL |
| H18L, R29D, Y31L, Q33H, K36G, M38I, T41A, M43R, M47T, E81V, L85R, K89N, A91T, F92P, K93V, R94L, I118V, T120S, I127T, T130A, H188D (protein) VIHVTKEVKEVATLSCGLNVSVEELAQTDILWHKEGKIVLAMRSGDTNIWPEYKNRTIFDITNNLSIVILALRPSDEGTYVCVVRKYENDTPVLEHLAEVTLSVKADFPTPSISDFEVPSSNIRRITCSASGGFPEPHLSWLENGEELNAINTTVSQDPETELYAVSSKLDFNMTTNHSFMCLIKYGDLRVNQTFNWNTTKQEHFPDN | 108 pg/mL |
| H18L, R29D, Y31L, Q33H, K36G, M38I, T41A, M43R, M47T, P74L, Y80N, E81V, L85R, K89N, A91T, F92P, K93V, R94L, L97R (protein) VIHVTKEVKEVATLSCGLNVSVEELAQTDILWHKEGKIVLAMRSGDTNIWPEYKNRTIFDITNNLSIVILALRLSDEGTNVCVVRKYENDTPVLEHRAEVTLSVKADFPTPSISDFEIPTSNIRRIICSTSGGFPEPHLSWLENGEELNAINTTVSQDPETELYAVSSKLDFNMTTNHSFMCLIKYGHLRVNQTFNWNTTKQEHFPDN | 18 pg/mL |
| R29D, Y31L, Q33H, K36G, M38I, T41A, M43R, M47T, E81V, L85R, K89N, A91T, F92P, K93V, R94F, N64S, I118T, T130A, N149S, K169I (protein) VIHVTKEVKEVATLSCGHNVSVEELAQTDILWHKEGKIVLAMRSGDTNIWPEYKNRTIFDITNSLSIVILALRPSDEGTYVCVVRKYENDTPVFEHLAEVTLSVKADFPTPSISDFETPTSNIRRIICSASGGFPEPHLSWLENGEELSAINTTVSQDPETELYAVSSILDFNMTTNHSFMCLIKYGHLRVNQTFNWNTTKQEHFPDN | 30 pg/mL |
| R29D, Y31L, Q33H, K36G, M38I, T41A, M43R, M47T, E81V, L85R, K89N, A91T, F92P, K93V, R94L, H18L, V68M, T130A (protein) VIHVTKEVKEVATLSCGLNVSVEELAQTDILWHKEGKIVLAMRSGDTNIWPEYKNRTIFDITNNLSIMILALRPSDEGTYVCVVRKYENDTPVLEHLAEVTLSVKADFPTPSISDFEIPTSNIRRIICSASGGFPEPHLSWLENGEELNAINTTVSQDPETELYAVSSKLDFNMTTNHSFMCLIKYGHLRVNQTFNWNTTKQEHFPDN | 51 pg/mL |
| V22A, R29D, Y31L, Q33H, K36G, M38I, T41A, M43R, M47T, E81V, L85R, K89N, A91T, F92P, K93V, R94L, V68M, T130A (protein) VIHVTKEVKEVATLSCGHNVSAEELAQTDILWHKEGKIVLAMRSGDTNIWPEYKNRTIFDITNNLSIMILALRPSDEGTYVCVVRKYENDTPVLEHLAEVTLSVKADFPTPSISDFEIPTSNIRRIICSASGGFPEPHLSWLENGEELNAINTTVSQDPETELYAVSSKLDFNMTTNHSFMCLIKYGHLRVNQTFNWNTTKQEHFPDN | 96 pg/mL |
| R29D, Y31L, Q33H, K36G, M38I, T41A, M43R, M47T, E81V, L85R, K89N, A91T, F92P, K93V, R94L, H18L, P74L, Y80N, T130A, R190S (protein) VIHVTKEVKEVATLSCGLNVSVEELAQTDILWHKEGKIVLAMRSGDTNIWPEYKNRTIFDITNNLSIVILALRLSDEGTNVCVVRKYENDTPVLEHLAEVTLSVKADFPTPSISDFEIPTSNIRRIICSASGGFPEPHLSWLENGEELNAINTTVSQDPETELYAVSSKLDFNMTTNHSFMCLIKYGHLSVNQTFNWNTTKQEHFPDN | 8 pg/mL |
